From patent US20120324602A1
Values belong to the binder of their own block, whether it stands above or below them.

Legend:
Assay in all cases: TAP-MS, N-terminal GS tag
[1] = molecular target: unknown, similar to At5g55210 (AT4G22320) (Arabidopsis thaliana)
[2] = molecular target: chaperonin, similar to At3g18190 (AT3G03960) (Arabidopsis thaliana)
[3] = molecular target: chaperonin (AT3G02530) (Arabidopsis thaliana)
[4] = molecular target: chaperonin (AT5G26360) (Arabidopsis thaliana)
[5] = molecular target: TCP-1 (Arabidopsis thaliana T-complex protein 1 alpha subunit) (Arabidopsis thaliana)
[6] = molecular target: T1, actin-related protein 4 (ARP4) (Arabidopsis thaliana)
T1 sequence (Q84M92 1-441, looked up): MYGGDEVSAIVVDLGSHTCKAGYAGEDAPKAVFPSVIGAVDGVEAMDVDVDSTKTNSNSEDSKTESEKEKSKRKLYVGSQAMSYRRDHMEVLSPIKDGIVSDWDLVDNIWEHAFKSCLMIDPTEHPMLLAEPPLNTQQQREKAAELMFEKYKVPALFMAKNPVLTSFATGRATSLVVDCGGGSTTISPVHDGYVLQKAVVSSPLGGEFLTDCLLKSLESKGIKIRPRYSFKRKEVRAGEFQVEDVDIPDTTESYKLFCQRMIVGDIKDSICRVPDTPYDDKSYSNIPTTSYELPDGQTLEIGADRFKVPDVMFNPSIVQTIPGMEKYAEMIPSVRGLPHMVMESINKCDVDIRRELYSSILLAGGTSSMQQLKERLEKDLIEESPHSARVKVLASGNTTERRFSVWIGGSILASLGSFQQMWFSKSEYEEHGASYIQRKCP

[7] = molecular target: chaperonin, similar to At3g03960 (AT3G18190) (Arabidopsis thaliana)
[8] = molecular target: protein coding (AT5G14240) (Arabidopsis thaliana)
[9] = molecular target: T2, SE (SERRATE) (Arabidopsis thaliana)
T2 sequence (Q9ZVD0 1-720, looked up): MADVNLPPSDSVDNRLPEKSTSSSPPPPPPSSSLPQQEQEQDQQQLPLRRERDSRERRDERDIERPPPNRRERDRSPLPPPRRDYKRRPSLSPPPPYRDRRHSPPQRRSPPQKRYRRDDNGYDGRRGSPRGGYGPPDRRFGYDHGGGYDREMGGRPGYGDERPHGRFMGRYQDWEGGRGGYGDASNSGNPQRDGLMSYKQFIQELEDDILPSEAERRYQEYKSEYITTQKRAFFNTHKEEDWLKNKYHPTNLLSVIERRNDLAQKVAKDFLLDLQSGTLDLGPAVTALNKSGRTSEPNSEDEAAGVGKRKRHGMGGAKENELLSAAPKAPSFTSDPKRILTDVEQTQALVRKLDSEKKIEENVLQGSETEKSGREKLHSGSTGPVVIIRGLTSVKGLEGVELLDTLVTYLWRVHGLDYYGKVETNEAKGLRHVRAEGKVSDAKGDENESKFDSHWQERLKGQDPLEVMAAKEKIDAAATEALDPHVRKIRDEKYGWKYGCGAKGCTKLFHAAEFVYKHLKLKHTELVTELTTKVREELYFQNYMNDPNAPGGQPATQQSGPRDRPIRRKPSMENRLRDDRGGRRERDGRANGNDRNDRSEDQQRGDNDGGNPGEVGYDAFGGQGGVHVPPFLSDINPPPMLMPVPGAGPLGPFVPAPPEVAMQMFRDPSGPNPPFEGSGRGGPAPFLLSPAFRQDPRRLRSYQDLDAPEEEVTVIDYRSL

[10] = molecular target: PHD finger protein (AT1G54390) (Arabidopsis thaliana)
[11] = molecular target: T3, actin-related protein 7 (ARP7) (Arabidopsis thaliana)
T3 sequence (Q8L4Y5 1-363, looked up): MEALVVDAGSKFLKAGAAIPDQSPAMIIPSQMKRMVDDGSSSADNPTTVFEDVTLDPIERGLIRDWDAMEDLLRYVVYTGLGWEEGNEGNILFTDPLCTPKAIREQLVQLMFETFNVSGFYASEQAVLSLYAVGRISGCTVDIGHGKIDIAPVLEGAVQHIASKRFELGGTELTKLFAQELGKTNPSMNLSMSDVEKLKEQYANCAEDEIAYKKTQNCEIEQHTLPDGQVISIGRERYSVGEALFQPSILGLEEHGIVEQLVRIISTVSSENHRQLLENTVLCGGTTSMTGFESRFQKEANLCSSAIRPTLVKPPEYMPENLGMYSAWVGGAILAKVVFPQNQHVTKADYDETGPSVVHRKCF

[12] = molecular target: T4, TAF14B, GAS41 (Arabidopsis thaliana)
T4 sequence (Q9FH40 1-268, looked up): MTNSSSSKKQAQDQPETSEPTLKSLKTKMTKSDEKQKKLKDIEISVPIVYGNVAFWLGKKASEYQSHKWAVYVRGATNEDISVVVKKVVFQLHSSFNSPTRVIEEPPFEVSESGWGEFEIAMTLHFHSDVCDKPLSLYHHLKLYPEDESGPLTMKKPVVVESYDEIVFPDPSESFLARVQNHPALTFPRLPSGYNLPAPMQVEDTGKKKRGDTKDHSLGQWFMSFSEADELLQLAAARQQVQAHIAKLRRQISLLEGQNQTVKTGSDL

TCP-1 (Arabidopsis thaliana T-complex protein 1 alpha subunit) (Arabidopsis thaliana), sequence (P28769 2-545, one chain of several): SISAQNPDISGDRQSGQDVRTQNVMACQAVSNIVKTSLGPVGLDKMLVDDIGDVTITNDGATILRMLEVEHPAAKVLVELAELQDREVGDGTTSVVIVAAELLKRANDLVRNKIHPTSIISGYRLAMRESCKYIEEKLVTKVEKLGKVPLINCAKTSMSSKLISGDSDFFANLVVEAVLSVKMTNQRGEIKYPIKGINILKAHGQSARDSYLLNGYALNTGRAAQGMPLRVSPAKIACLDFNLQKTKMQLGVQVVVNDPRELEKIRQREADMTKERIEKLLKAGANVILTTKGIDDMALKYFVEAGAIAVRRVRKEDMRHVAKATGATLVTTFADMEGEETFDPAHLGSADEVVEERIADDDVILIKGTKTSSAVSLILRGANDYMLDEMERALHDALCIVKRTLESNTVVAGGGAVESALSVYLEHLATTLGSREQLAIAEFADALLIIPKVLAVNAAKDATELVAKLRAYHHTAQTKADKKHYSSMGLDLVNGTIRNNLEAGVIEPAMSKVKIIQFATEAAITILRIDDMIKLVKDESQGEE

N-GS (times co-purified) [1]: 2
N-GS (times co-purified) [2]: 2
N-GS (times co-purified) [3]: 2
N-GS (times co-purified) [4]: 2
N-GS (times co-purified) [5]: 2
N-GS (times co-purified) [6]: 1
N-GS (times co-purified) [7]: 2
N-GS (times co-purified) [8]: 2
B1: GS-ARP7 (protein, UniProt Q8L4Y5 1-363, looked up)
Actin-related protein 7: T3 sequence (Q8L4Y5 1-363, looked up)
modifications: N-terminal GS tag

N-GS (times co-purified) [9]: 1
N-GS (times co-purified) [4]: 2
N-GS (times co-purified) [10]: 1
N-GS (times co-purified) [11]: 2
N-GS (times co-purified) [12]: 2
N-GS (times co-purified) [8]: 2
B2: GS-ARP4 (protein, UniProt Q84M92 1-441, looked up)
Actin-related protein 4: T1 sequence (Q84M92 1-441, looked up)
modifications: N-terminal GS tag
